Target: Heat inactivated human AB serum labelled with Dylight 633 (human)
Experiment: flow cytometry, IgG displayed on HEK293 cells, anti-Fc PE and Dylight 633 labelled human AB serum

Nivolumab displayed from pINT17-BSD (antibody)
% cells double positive for antibody and human serum binding: 3.7%

Vesencumab (antibody)
% cells double positive for antibody and human serum binding: 12.3%

From US20210163923A1
